This note sets out measurements from publication PMC13669270, “The isolated HEPN domain of SACSIN exhibits RNA-binding activity”.

For series [1], the target named is T1, HEPN domain of SACSIN (tag removed) (UniProt Q9NZJ4 4441-4579).
T1 sequence: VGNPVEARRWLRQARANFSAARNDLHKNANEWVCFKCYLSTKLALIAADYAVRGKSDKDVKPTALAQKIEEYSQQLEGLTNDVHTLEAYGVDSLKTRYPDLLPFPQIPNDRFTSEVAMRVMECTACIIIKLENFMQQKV
Briefly: BLI; 75 nM to 10 uM protein; BLI: 20 mM potassium phosphate pH 7.4, 150 mM KCl, 0.05% Tween-20, 25 C; pull-down: PBS, 2 mM MgCl2, 0.2% NP-40, 0.05% BSA, RNase inhibitor, room temperature. Particulars: protein: recombinant; tags: GST removed by thrombin; chain copies: 2; label: biotin; 1 strand. In general terms: Biolayer interferometry detects binding as a change in optical thickness at a sensor tip.

Series [2] deals with T1, HEPN domain of SACSIN (tag removed). Briefly: BLI; BLI: 20 mM potassium phosphate pH 7.4, 150 mM KCl, 0.05% Tween-20, 25 C; pull-down: PBS, 2 mM MgCl2, 0.2% NP-40, 0.05% BSA, RNase inhibitor, room temperature. Particulars: protein: recombinant; tags: GST removed by thrombin; chain copies: 2; label: 5' biotin; 1 strand; two putative G-quadruplex-forming stretches.

With AACCAACUUUCGAUCUCUUGUAGAUCUGUUCU (ssRNA) [non-GC-rich RNA 32 nt], in series [1], the binding result is given as “no binding”. What is called Kd is the equilibrium constant for the complex coming apart. On to CGGGGGCGGCGGCGGCGGCGGCGGCAGCGGGG (ssRNA) [GC-rich RNA 32 nt (predicted HEPN interacting RNA)], for which the Kd in series [2] was found to be 2.6 ± 0.3 µM.
